The target of the experiment is His-tagged FRUCTOKINASE6 (FRK6-His) (Arabidopsis thaliana).

In PMC5651264 one finds formazan staining of a native PAGE gel (fructokinase enzyme activity staining), 1 μg FRK6-His with 1 μg His-TSF (the His-tagged TSF, not the GST fusion), against FRK6-His alone data, which are given here for one substance.

As for “GST-tagged TWIN SISTER OF FT (GST-TSF) (from UniProt Q9S7R5 1-175) (natural protein)”, the formazan staining of a native PAGE gel (fructokinase enzyme activity staining), 1 μg FRK6-His with 1 μg His-TSF (the His-tagged TSF, not the GST fusion), against FRK6-His alone is 2 fold.
